Data: publication PMC8546600, “Chaperone Spy Protects Outer Membrane Proteins from Folding Stress via Dynamic Complex Formation” (mBio, 2021)
Positions count from the first letter of the chain named. Numbers in names are those of the source.

Key:
Conditions in all cases: both partners purified
His-OmpX = molecular target: T1, His-OmpX (Escherichia coli, UniProt P0A917 24-171); test: other fluorescence titration; intrinsic tryptophan fluorescence of the OMP (0.4 uM) titrated with increasing Spy or Skp; 40 mM HEPES, 150 mM NaCl, 0.24 M urea, pH 7.5; 25 C; excitation 295 nm, emission 305-400 nm
T1 construct: Unfolded: diluted from 8 M urea to 0.24 M urea for the assay; source: E. coli, from pET28b(+)-His-ompX, purified, kept in 8 M urea; not shown: 6xHis, N-terminal, kept
T1 sequence (looked up): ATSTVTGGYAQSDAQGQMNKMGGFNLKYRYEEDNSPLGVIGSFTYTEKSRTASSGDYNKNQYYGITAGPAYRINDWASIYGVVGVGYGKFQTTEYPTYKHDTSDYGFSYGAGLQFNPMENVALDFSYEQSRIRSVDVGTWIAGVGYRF

His-OmpC = molecular target: T2, His-OmpC (Escherichia coli, UniProt P06996 22-367); test: as above
T2 construct: Unfolded: diluted from 8 M urea to 0.24 M urea for the assay; source: E. coli, from pET28b(+)-His-ompC, purified, kept in 8 M urea; not shown: 6xHis, N-terminal, kept
T2 sequence (looked up): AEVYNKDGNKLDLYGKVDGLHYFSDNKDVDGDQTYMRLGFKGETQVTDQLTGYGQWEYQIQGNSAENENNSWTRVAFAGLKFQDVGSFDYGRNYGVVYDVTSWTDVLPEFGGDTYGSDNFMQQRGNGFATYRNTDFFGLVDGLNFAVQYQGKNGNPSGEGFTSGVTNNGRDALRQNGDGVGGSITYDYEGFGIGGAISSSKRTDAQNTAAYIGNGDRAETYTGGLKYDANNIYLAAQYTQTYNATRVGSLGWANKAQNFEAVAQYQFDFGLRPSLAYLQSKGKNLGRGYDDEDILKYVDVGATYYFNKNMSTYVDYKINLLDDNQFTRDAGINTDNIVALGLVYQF

His-OmpA = molecular target: T3, His-OmpA (Escherichia coli, UniProt P0A910 22-346); test: as above
T3 construct: Unfolded: diluted from 8 M urea to 0.24 M urea for the assay; source: E. coli, from pET28b(+)-His-ompA, purified, kept in 8 M urea; not shown: 6xHis, N-terminal, kept
T3 sequence (looked up): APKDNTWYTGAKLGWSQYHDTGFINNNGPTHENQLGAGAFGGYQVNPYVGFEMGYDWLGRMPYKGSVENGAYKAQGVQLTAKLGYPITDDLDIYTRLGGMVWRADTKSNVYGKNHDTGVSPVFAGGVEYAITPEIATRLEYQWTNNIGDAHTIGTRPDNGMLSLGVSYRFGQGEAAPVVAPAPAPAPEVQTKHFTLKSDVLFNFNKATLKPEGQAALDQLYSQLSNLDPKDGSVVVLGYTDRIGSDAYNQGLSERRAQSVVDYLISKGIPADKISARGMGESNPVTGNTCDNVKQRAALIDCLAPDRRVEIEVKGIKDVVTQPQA

His-LamB = molecular target: T4, His-LamB (Escherichia coli, UniProt P02943 26-446); test: as above
T4 construct: Unfolded: diluted from 8 M urea to 0.24 M urea for the assay; source: E. coli, from pET28b(+)-His-lamB, purified, kept in 8 M urea; not shown: 6xHis, N-terminal, kept

untagged OmpX = molecular target: T5, untagged OmpX (Escherichia coli, UniProt P0A917 24-171); test: NMR spectroscopy of assembled chaperone-OMP complexes; excess urea-denatured OMP added dropwise to the chaperone, supernatant concentrated; 2D [15N,1H]-TROSY or HSQC with one partner [U-2H,15N]-labelled; 25 mM MES, 50 mM NaCl, pH 6.5; 315 K (tOmpA-Spy also at 42, 26 and 15 C)
T5 construct: outer membrane protein OmpX of Escherichia coli; [U-2H,15N]-labelled in the TROSY experiments, unlabelled in the HSQC experiment with labelled Spy; source: E. coli, from pET28b(+)-ompX, purified from the insoluble pellet in 8 M urea (ion exchange)
T5 sequence (looked up): T1 sequence (looked up)

Measured: binding result

T4 sequence (P02943 26-446): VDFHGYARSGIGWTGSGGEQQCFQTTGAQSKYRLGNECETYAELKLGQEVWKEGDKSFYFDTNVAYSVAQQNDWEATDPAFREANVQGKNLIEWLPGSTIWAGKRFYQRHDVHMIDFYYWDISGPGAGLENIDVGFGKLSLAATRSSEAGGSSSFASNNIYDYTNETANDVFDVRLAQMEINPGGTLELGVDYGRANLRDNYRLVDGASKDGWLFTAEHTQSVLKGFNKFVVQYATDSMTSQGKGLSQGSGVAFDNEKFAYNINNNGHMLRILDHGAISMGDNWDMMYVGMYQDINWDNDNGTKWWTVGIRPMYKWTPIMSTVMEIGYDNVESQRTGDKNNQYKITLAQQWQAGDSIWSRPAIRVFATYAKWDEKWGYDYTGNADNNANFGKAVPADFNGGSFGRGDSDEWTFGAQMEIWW

B1: periplasmic chaperone Spy (natural protein, Escherichia coli, UniProt P77754 24-161, looked up)
chain: ADTTTAAPADAKPMMHHKGKFGPHQDMMFKDLNLTDAQKQQIREIMKGQRDQMKRPPLEERRAMHDIIASDTFDKVKAEAQIAKMEEQRKANMLAHMETQNKIYNILTPEQKKQFNANFEKRLTERPAAKGKMPATAE
notes: Spy, periplasmic chaperone of Escherichia coli; [U-2H,15N]-labelled in the HSQC experiment with unlabelled OmpX, unlabelled elsewhere; also called wild-type Spy; WT Spy; source: E. coli, from pET28b(+)-HisSUMO-spy, purified (6xHis-SUMO tag removed, cation exchange)
binds: all assays above

B2: Spy^Q100L (natural protein, Escherichia coli, UniProt P77754 24-161, looked up)
chain: B1 chain with Q100L
notes: Spy of Escherichia coli with Q100L; also called Q100L variant; source: E. coli, from pET28b(+)-HisSUMO-spy-Q100L, purified
binds: untagged OmpX

B3: seventeen-kilodalton protein (Skp) (natural protein, Escherichia coli, UniProt P0AEU7 21-161, looked up)
chain: ADKIAIVNMGSLFQQVAQKTGVSNTLENEFKGRASELQRMETDLQAKMKKLQSMKAGSDRTKLEKDVMAQRQTFAQKAQAFEQDRARRSNEERGKLVTRIQTAVKSVANSQDIDLVVDANAVAYNSSDVKDITADVLKQVK
notes: Skp, periplasmic chaperone of Escherichia coli; source: E. coli, from pET28b(+)-HisSUMO-skp, purified (6xHis-SUMO tag removed, cation exchange)
not listed: untagged OmpX
binds: all other assays above
